Data set [1] has as its system HeLa Kyoto. Briefly: solubility in G1/S (NP-40 vs SDS abundance) (log2 ratio); higher = more soluble. Particulars: cell cycle stage: G1/S.
The test system of data set [2] is HeLa Kyoto. Put plainly: melting temperature (median over replicates), in situ; higher = more thermally stable.
Data set [3] relates to HeLa Kyoto. Briefly: solubility change mitosis vs G1/S (difference of NP-40 vs SDS log2 ratios) (log2 ratio difference); higher = more soluble in mitosis.
Data set [4] has as its system HeLa Kyoto. Briefly: thermal stability score vs G1/S (z-score of summed log2 fold changes over temperatures); higher = more thermally stable than in G1/S.
Where [5] appears, read: cell cycle stage: early G1 (4.5 h after nocodazole release).
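Wherever melting temperature (median over replicates), in situ is given: HeLa Kyoto cells synchronized by double thymidine or nocodazole block, proteins quantified by TMT10plex mass spectrometry, three independent biological replicates.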
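Wherever solubility change mitosis vs G1/S (difference of NP-40 vs SDS log2 ratios) is given: synchronized HeLa Kyoto cells (double thymidine block for G1/S, nocodazole release for mitosis), protein amounts in NP-40 versus SDS lysates quantified by mass spectrometry, three biological replicates.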
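Wherever solubility in G1/S (NP-40 vs SDS abundance) is given: HeLa Kyoto cells arrested at G1/S by double thymidine block, proteins quantified by TMT10plex mass spectrometry in mild NP-40 versus SDS extracts, three biological replicates.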
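Wherever thermal stability score vs G1/S (z-score of summed log2 fold changes over temperatures) is given: synchronized HeLa Kyoto cells, proteins quantified by TMT10plex mass spectrometry, three biological replicates, mitosis taken 0.5 h after nocodazole release, G1/S directly after double thymidine block.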

With “MAAGTSSYWEDLRKQARQLENELDLKLVSFSKLCTSYSHSSTRDGRRDRYSSDTTPLLNGSSQDRMFETMAIEIEQLLARLTGVNDKMAEYTNSAGVPSLNAALMHTLQRHRDILQDYTHEFHKTKANFMAIRERENLMGSVRKDIESYKSGSGVNNRRTELFLKEHDHLRNSDRLIEETISIAMATKENMTSQRGMLKSIHSKMNTLANRFPAVNSLIQRINLRKRRDSLILGGVIGICTILLLLYAFH [GOSR1]”, the “solubility in G1/S (log2)” value with HeLa Kyoto [1] worked out at 0.28. Moreover, the melting temperature worked out at 54.7 °C with HeLa Kyoto [2] (cell cycle stage: G1/S) and 52 °C with HeLa Kyoto [2] (cell cycle stage: mitosis). Moreover, in the data set on HeLa Kyoto [3], the “solubility change mitosis (log2)” value is 0.02. The thermal stability score with HeLa Kyoto [4] (setting [5]) is -0.21; in the data set with HeLa Kyoto [4] (cell cycle stage: mitosis), -0.667.

With “MAAGVDCGDGVGARQHVFLVSEYLKDASKKMKNGLMFVKLVNPCSGEGAIYLFNMCLQQLFEVKVFKEKHHSWFINQSVQSGGLLHFATPVDPLFLLLHYLIKADKEGKFQPLDQVVVDNVFPNCILLLKLPGLEKLLHHVTEEKGNPEIDNKKYYKYSKEKTLKWLEKKVNQTVAALKTNNVNVSSRVQSTAFFSGDQASTDKEEDYIRYAHGLISDYIPKELSDDLSKYLKLPEPSASLPNPPSKKIKLSDEPVEAKEDYTKFNTKDLKTEKKNSKMTAAQKALAKVDKSGMKSIDTFFGVKNKKKIGKV [RNASEH2B]”, in the data set with HeLa Kyoto [1], the “solubility in G1/S (log2)” value turned out to be 0.517. Also, the melting temperature was 48.8 °C with HeLa Kyoto [2] (cell cycle stage: G1/S) and 49.7 °C in the data set with HeLa Kyoto [2] (cell cycle stage: mitosis). The “solubility change mitosis (log2)” value in the data set with HeLa Kyoto [3] is -0.0965. The thermal stability score is -0.0838 in the data set on HeLa Kyoto [4] (setting [5]) and 0.982 in the data set with HeLa Kyoto [4] (cell cycle stage: mitosis).

Turning to “MAAIPPDSWQPPNVYLETSMGIIVLELYWKHAPKTCKNFAELARRGYYNGTKFHRIIKDFMIQGGDPTGTGRGGASIYGKQFEDELHPDLKFTGAGILAMANAGPDTNGSQFFVTLAPTQWLDGKHTIFGRVCQGIGMVNRVGMVETNSQDRPVDDVKIIKAYPSG [PPIL1]”, in the data set on HeLa Kyoto [1], the “solubility in G1/S (log2)” value was 0.351. Further, the results for the melting temperature in the data set with HeLa Kyoto [2] (cell cycle stage: G1/S) and with HeLa Kyoto [2] (cell cycle stage: mitosis) were 49.1 °C and 50.1 °C, respectively. Moreover, in the data set on HeLa Kyoto [3], the “solubility change mitosis (log2)” value stood at 0.414. Further, the thermal stability score is -0.554 with HeLa Kyoto [4] (setting [5]) and -0.941 with HeLa Kyoto [4] (cell cycle stage: mitosis).

Turning to “MAAIRMGKLTTMPAGLIYASVSVHAAKQEESKKQLVKPEQLPIYTAPPLQSKYVEEQPGHLQMGFASIRTATGCYIGWCKGVYVFVKNGIMDTVQFGKDAYVYLKNPPRDFLPKMGVITVSGLAGLVSARKGSKFKKITYPLGLATLGATVCYPVQSVIIAKVTAKKVYATSQQIFGAVKSLWTKSSKEESLPKPKEKTKLGSSSEIEVPAKTTHVLKHSVPLPTELSSEAKTKSESTSGATQFMPDPKLMDHGQSHPEDIDMYSTRS [APOOL]”, the “solubility in G1/S (log2)” value with HeLa Kyoto [1] came to 0.166. For the same sequence, the figures for the melting temperature with HeLa Kyoto [2] (cell cycle stage: G1/S) and in the data set with HeLa Kyoto [2] (cell cycle stage: mitosis) were 53.9 °C and 57.3 °C, respectively. The “solubility change mitosis (log2)” value with HeLa Kyoto [3] is -0.104. For the same sequence, the thermal stability score in the data set on HeLa Kyoto [4] (setting [5]) was -1.29; in the data set on HeLa Kyoto [4] (cell cycle stage: mitosis), -2.35.

Regarding “MAAKSQPNIPKAKSLDGVTNDRTASQGQWGRAWEVDWFSLASVIFLLLFAPFIVYYFIMACDQYSCALTGPVVDIVTGHARLSDIWAKTPPITRKAAQLYTLWVTFQVLLYTSLPDFCHKFLPGYVGGIQEGAVTPAGVVNKYQINGLQAWLLTHLLWFANAHLLSWFSPTIIFDNWIPLLWCANILGYAVSTFAMVKGYFFPTSARDCKFTGNFFYNYMMGIEFNPRIGKWFDFKLFFNGRPGIVAWTLINLSFAAKQRELHSHVTNAMVLVNVLQAIYVIDFFWNETWYLKTIDICHDHFGWYLGWGDCVWLPYLYTLQGLYLVYHPVQLSTPHAVGVLLLGLVGYYIFRVANHQKDLFRRTDGRCLIWGRKPKVIECSYTSADGQRHHSKLLVSGFWGVARHFNYVGDLMGSLAYCLACGGGHLLPYFYIIYMAILLTHRCLRDEHRCASKYGRDWERYTAAVPYRLLPGIF [DHCR7]”, in the data set with HeLa Kyoto [1], the “solubility in G1/S (log2)” value is -0.604. The results for the melting temperature in the data set with HeLa Kyoto [2] (cell cycle stage: G1/S) and with HeLa Kyoto [2] (cell cycle stage: mitosis) were 51 °C and 50.7 °C, respectively. In the data set on HeLa Kyoto [3], the “solubility change mitosis (log2)” value is -0.0769. In addition, the thermal stability score in the data set with HeLa Kyoto [4] (setting [5]) is 0.148; in the data set on HeLa Kyoto [4] (cell cycle stage: mitosis), -0.18.

For the sequence “MAALGVAEAVAAPHPAEGAETAEAVELSRALSRLLPGLEADSKPGRRRALEALRRALEEPGPAADPTAFQGPWARLLLPRLLRCLSDPAEGCRALAVHLLDLGLRRAARPRDALPRLLPALAARLAGPVPARRPPEACEELRLALVQLLGLAVDLCGAALAPHLDDALRALRCSLLDPFAAVRRESCSCAAALAQATPDHFHMQSESLIGPLMQTISHQHWKVRVAAIEATGAVIHFGNGKSVDDVLSHFAQRLFDDVPQVRRAVASVVGGWLLCLRDRYSFFHKLIPLLLSSLNDEVPEVRQLAASLWEDVGLQWQKENEEDLKDKLDFAPPTPPHYPPHERRPVLGCRELVFRNLSKILPALCHDITDWVVGTRVKSAQLLPVLLLHAEDHATQHLEVVLRTLFQACTDEEAAVVQSCTRSAELVGTFVSPEVFLKLILSTLKKTPSASGLLVLASAMRGCPREALQPHLAAIATELAQAHICQASENDLYLERLLLCVQALVSVCHEDCGVASLQLLDVLLTIVALAGATGLRDKAQETMDSLAMVEGVSSCQDLYRKHIGPLLERVTASHLDWTAHSPELLQFSVIVAQSGPALGEALPHVVPTLRACLQPSQDPQMRLKLFSILSTVLLRATDTINSQGQFPSYLETVTKDILAPNLQWHAGRTAAAIRTAAVSCLWALTSSEVLSAEQIRDVQETLMPQVLTTLEEDSKMTRLISCRIINTFLKTSGGMTDPEKLIRIYPELLKRLDDVSNDVRMAAASTLVTWLQCVKGANAKSYYQSSVQYLYRELLVHLDDPERAIQDAILEVLKEGSGLFPDLLVRETEAVIHKHRSATYCEQLLQHVQAVPATQ [DNAAF5]”, in the data set with HeLa Kyoto [1], the “solubility in G1/S (log2)” value was determined as 0.0447. Also, the melting temperature in the data set with HeLa Kyoto [2] (cell cycle stage: G1/S) worked out at 48.1 °C; in the data set with HeLa Kyoto [2] (cell cycle stage: mitosis), 48 °C. Besides, the “solubility change mitosis (log2)” value with HeLa Kyoto [3] was -0.172. Besides, the thermal stability score was determined as 0.695 in the data set on HeLa Kyoto [4] (setting [5]) and 2.82 in the data set on HeLa Kyoto [4] (cell cycle stage: mitosis).

As to “MAALMTPGTGAPPAPGDFSGEGSQGLPDPSPEPKQLPELIRMKRDGGRLSEADIRGFVAAVVNGSAQGAQIGAMLMAIRLRGMDLEETSVLTQALAQSGQQLEWPEAWRQQLVDKHSTGGVGDKVSLVLAPALAACGCKVPMISGRGLGHTGGTLDKLESIPGFNVIQSPEQMQVLLDQAGCCIVGQSEQLVPADGILYAARDVTATVDSLPLITASILSKKLVEGLSALVVDVKFGGAAVFPNQEQARELAKTLVGVGASLGLRVAAALTAMDKPLGRCVGHALEVEEALLCMDGAGPPDLRDLVTTLGGALLWLSGHAGTQAQGAARVAAALDDGSALGRFERMLAAQGVDPGLARALCSGSPAERRQLLPRAREQEELLAPADGTVELVRALPLALVLHELGAGRSRAGEPLRLGVGAELLVDVGQRLRRGTPWLRVHRDGPALSGPQSRALQEALVLSDRAPFAAPSPFAELVLPPQQ [TYMP]”, the “solubility in G1/S (log2)” value in the data set on HeLa Kyoto [1] came to 0.479. Moreover, the melting temperature with HeLa Kyoto [2] (cell cycle stage: G1/S) came to 55.7 °C; with HeLa Kyoto [2] (cell cycle stage: mitosis), 57.5 °C. In addition, in the data set with HeLa Kyoto [3], the “solubility change mitosis (log2)” value was -0.0175. Moreover, the thermal stability score in the data set with HeLa Kyoto [4] (setting [5]) was -1.38; with HeLa Kyoto [4] (cell cycle stage: mitosis), -0.967.

Turning to “MAALTTLFKYIDENQDRYIKKLAKWVAIQSVSAWPEKRGEIRRMMEVAAADVKQLGGSVELVDIGKQKLPDGSEIPLPPILLGRLGSDPQKKTVCIYGHLDVQPAALEDGWDSEPFTLVERDGKLYGRGSTDDKGPVAGWINALEAYQKTGQEIPVNVRFCLEGMEESGSEGLDELIFARKDTFFKDVDYVCISDNYWLGKKKPCITYGLRGICYFFIEVECSNKDLHSGVYGGSVHEAMTDLILLMGSLVDKRGNILIPGINEAVAAVTEEEHKLYDDIDFDIEEFAKDVGAQILLHSHKKDILMHRWRYPSLSLHGIEGAFSGSGAKTVIPRKVVGKFSIRLVPNMTPEVVGEQVTSYLTKKFAELRSPNEFKVYMGHGGKPWVSDFSHPHYLAGRRAMKTVFGVEPDLTREGGSIPVTLTFQEATGKNVMLLPVGSADDGAHSQNEKLNRYNYIEGTKMLAAYLYEVSQLKD [CNDP2]”, the “solubility in G1/S (log2)” value in the data set with HeLa Kyoto [1] is 0.253. Besides, the melting temperature in the data set with HeLa Kyoto [2] (cell cycle stage: G1/S) came to 54.4 °C; in the data set with HeLa Kyoto [2] (cell cycle stage: mitosis), 53.4 °C. Moreover, the “solubility change mitosis (log2)” value in the data set on HeLa Kyoto [3] was -0.148. For the same sequence, the thermal stability score with HeLa Kyoto [4] (setting [5]) is -6.23; in the data set with HeLa Kyoto [4] (cell cycle stage: mitosis), -11.6.

As for “MAALYRPGLRLNWHGLSPLGWPSCRSIQTLRVLSGDLGQLPTGIRDFVEHSARLCQPEGIHICDGTEAENTATLTLLEQQGLIRKLPKYNNCWLARTDPKDVARVESKTVIVTPSQRDTVPLPPGGARGQLGNWMSPADFQRAVDERFPGCMQGRTMYVLPFSMGPVGSPLSRIGVQLTDSAYVVASMRIMTRLGTPVLQALGDGDFVKCLHSVGQPLTGQGEPVSQWPCNPEKTLIGHVPDQREIISFGSGYGGNSLLGKKCFALRIASRLARDEGWLAEHMLILGITSPAGKKRYVAAAFPSACGKTNLAMMRPALPGWKVECVGDDIAWMRFDSEGRLRAINPENGFFGVAPGTSATTNPNAMATIQSNTIFTNVAETSDGGVYWEGIDQPLPPGVTVTSWLGKPWKPGDKEPCAHPNSRFCAPARQCPIMDPAWEAPEGVPIDAIIFGGRRPKGVPLVYEAFNWRHGVFVGSAMRSESTAAAEHKGKIIMHDPFAMRPFFGYNFGHYLEHWLSMEGRKGAQLPRIFHVNWFRRDEAGHFLWPGFGENARVLDWICRRLEGEDSARETPIGLVPKEGALDLSGLRAIDTTQLFSLPKDFWEQEVRDIRSYLTEQVNQDLPKEVLAELEALERRVHKM [PCK2]”, in the data set on HeLa Kyoto [1], the “solubility in G1/S (log2)” value was found to be 0.00231. In addition, the results for the melting temperature in the data set with HeLa Kyoto [2] (cell cycle stage: G1/S) and in the data set on HeLa Kyoto [2] (cell cycle stage: mitosis) were 52.8 °C and 52.1 °C, respectively. Moreover, the “solubility change mitosis (log2)” value in the data set with HeLa Kyoto [3] is -0.0852. Besides, the thermal stability score in the data set on HeLa Kyoto [4] (setting [5]) is -2.32; in the data set with HeLa Kyoto [4] (cell cycle stage: mitosis) it was -1.91.
